Reference: the supplement of paper PMC9233669
Variants at the floor of the assay were thinned out.

How the values were obtained:
biotinyl-Phe-oxazolone = experiment: self-aminoacylation, catalytic enhancement (BFO) (fold over background); higher = more active; k-Seq, kA / k0A0; sequences stand for … in GGGAAUGGAUCCACAUCUACGAAUUC…UUCACUGCAGACUUGACGAAGCUG
Method in brief: (§1)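 Mutagenized RNA pools (0.43 μM; 21-nt variable region) were treated with 2–1250 μM of each biotinyl-aminoacyl-oxazolone. Conditions were 50 μL HEPES/NaCl/KCl/MgCl2/CaCl2 buffer, 5% acetonitrile, pH 6.9–7.0, room temperature, 90 minutes. Catalytic enhancement, the median kA relative to the uncatalyzed rate, was derived from streptavidin capture, qPCR and Illumina sequencing.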

biotinyl-Ile-oxazolone = experiment: self-aminoacylation, catalytic enhancement (BIO) (fold over background); higher = more active; k-Seq, kA / k0A0; sequences stand for … in GGGAAUGGAUCCACAUCUACGAAUUC…UUCACUGCAGACUUGACGAAGCUG
Method in brief: as §1

biotinyl-Met-oxazolone = experiment: self-aminoacylation, catalytic enhancement (BMO) (fold over background); higher = more active; k-Seq, kA / k0A0; sequences stand for … in GGGAAUGGAUCCACAUCUACGAAUUC…UUCACUGCAGACUUGACGAAGCUG
Method in brief: as §1

biotinyl-Val-oxazolone = experiment: self-aminoacylation, catalytic enhancement (BVO) (fold over background); higher = more active; k-Seq, kA / k0A0; sequences stand for … in GGGAAUGGAUCCACAUCUACGAAUUC…UUCACUGCAGACUUGACGAAGCUG
Method in brief: as §1

biotinyl-Leu-oxazolone = experiment: self-aminoacylation, catalytic enhancement (BLO) (fold over background); higher = more active; k-Seq, kA / k0A0; sequences stand for … in GGGAAUGGAUCCACAUCUACGAAUUC…UUCACUGCAGACUUGACGAAGCUG
Method in brief: as §1

biotinyl-Trp-oxazolone = experiment: self-aminoacylation, catalytic enhancement (BWO) (fold over background); higher = more active; k-Seq, kA / k0A0; sequences stand for … in GGGAAUGGAUCCACAUCUACGAAUUC…UUCACUGCAGACUUGACGAAGCUG
Method in brief: as §1

Sequence	self-aminoacylation (biotinyl-Phe-oxazolone)	self-aminoacylation (biotinyl-Ile-oxazolone)	self-aminoacylation (biotinyl-Met-oxazolone)	self-aminoacylation (biotinyl-Val-oxazolone)	self-aminoacylation (biotinyl-Leu-oxazolone)	self-aminoacylation (biotinyl-Trp-oxazolone)
AUACUUCAUACAAUCGGUCUG [Fam1A.1 aminoacylation ribozyme variant]	1.1	1.02	0.981	0.939	0.874	0.952
CCACACUCUAAGCAAUCGGUC [Fam1B.1 aminoacylation ribozyme variant]	1.04	0.985	0.69	1.06	0.683	0.903
AAGUUUGGUAAUACUCGCAAG [Fam3.1 aminoacylation ribozyme variant]	1.07	1.06	0.998	1.04	0.673	0.719
AUUACCCGGGUCACCGAGUGA [Fam2.1 aminoacylation ribozyme variant]	145	6.79	19.3	8.28	21.4	19.5
AAGUUUGCUAAAAGUCGCAAC [Fam3.1 aminoacylation ribozyme variant]	0.796	1.08	1.1	0.948	1.25	1.01
AAGUUUGCGAAUAGUUGCAAG [Fam3.1 aminoacylation ribozyme variant]	0.975	0.915	1.2	0.803	0.661	1.16
AAGUUUGCUAAUAAUCACAAG [Fam3.1 aminoacylation ribozyme variant]	1.25	1.08	1.05	0.832	1.08	1.1
CUACUUCAAACUAUCGGUCUU [Fam1A.1 aminoacylation ribozyme variant]	0.957	1.03	0.833	0.968	0.822	0.796
AGUCACCUAGGUCAUCGGGUC [Fam2.2 aminoacylation ribozyme variant]	4.41	1.46	2.13	1.7	1.82	1.69
AUUACCCUGGUCAUCGAGUUC [Fam2.1 aminoacylation ribozyme variant]	4.38	1.02	1.88	1.53	2.17	1.54
CUGCUUCAAACAAUCGGGCUG [Fam1A.1 aminoacylation ribozyme variant]	38.7	2.2	2.66	2.33	3.18	36.1
AUGACCCUGGUCAUCGCGUGA [Fam2.1 aminoacylation ribozyme variant]	126	7.46	16	7.53	17.1	19.7
AUAACCCUGGUCAUCGAGUCA [Fam2.1 aminoacylation ribozyme variant]	0.721	0.774	0.958	0.806	0.781	0.624
AUUUACCUCGGUCAUCGGGUG [Fam2.2 aminoacylation ribozyme variant]	54.6	4.06	6.78	4.9	8.51	7.01
CCACACUGCAAGCAAUCGGUA [Fam1B.1 aminoacylation ribozyme variant]	0.894	2.19	2.16	2.25	2.11	2.33
AAGUUUGCUAGCAGUCGCAAG [Fam3.1 aminoacylation ribozyme variant]	1.85	1.19	1.03	1.08	1.04	0.91
AUUCCCCUGGUCAACGAGUGA [Fam2.1 aminoacylation ribozyme variant]	49.5	4.6	8.04	4.67	7.82	8.98
CUACUUCACACAAUCGGCCUG [Fam1A.1 aminoacylation ribozyme variant]	0.896	1.69	1.75	1.86	1.75	1.72
AUUCACCCAAGUCAUCGGGUG [Fam2.2 aminoacylation ribozyme variant]	92.9	5.59	11	5.86	14.8	10.1
AAUCACCUAGGUCAUCGGGUG [Fam2.2 aminoacylation ribozyme variant]	42.9	5.67	7.92	5.65	9.15	8.58
AUUACCCUGGUCAUAUAGUGA [Fam2.1 aminoacylation ribozyme variant]	69.1	5.04	11.2	5.51	10.7	12.4
AAGUUUGAUAAGAGUCGCAAG [Fam3.1 aminoacylation ribozyme variant]	1.67	1.62	1.06	1.12	1.24	1.33
AAGCACCUAGGUCAUCGGGUG [Fam2.2 aminoacylation ribozyme variant]	23.6	2.84	3.13	2.91	2.66	4.45
CUAGUUCAAACGAUCGGUCUG [Fam1A.1 aminoacylation ribozyme variant]	0.559	0.782	0.812	0.794	0.844	0.58
CCACACCUCAACCAAUCGGUC [Fam1B.1 aminoacylation ribozyme variant]	3.45	1.11	1.37	1.02	1.28	3.13
AAGUUUGCUAAUAGUUGCAAC [Fam3.1 aminoacylation ribozyme variant]	0.862	1.06	0.933	0.83	0.853	0.841

Sequence	self-aminoacylation (biotinyl-Phe-oxazolone)	self-aminoacylation (biotinyl-Ile-oxazolone)	self-aminoacylation (biotinyl-Met-oxazolone)	self-aminoacylation (biotinyl-Val-oxazolone)	self-aminoacylation (biotinyl-Leu-oxazolone)	self-aminoacylation (biotinyl-Trp-oxazolone)
CUACCUCAAAUAAUCGGUCUG [Fam1A.1 aminoacylation ribozyme variant]	1.1	1.05	1.08	0.863	1.12	1.23
CUUCUUCAGACAAUCGGUCUG [Fam1A.1 aminoacylation ribozyme variant]	0.958	0.76	0.651	0.751	0.606	0.559
CUUAUUCAAACAAUCGGUCUG [Fam1A.1 aminoacylation ribozyme variant]	7.03	0.702	0.713	0.688	0.679	3.34
CCACAGUUCAAGCAAUCGGUA [Fam1B.1 aminoacylation ribozyme variant]	0.787	1.08	1.28	1.13	1.01	0.707
AUUAACCUAGGUCGUCGGGUG [Fam2.2 aminoacylation ribozyme variant]	3.08	1.38	1.7	1.42	2.01	1.42
AAGUUUAUUAAUAGUCGCAAG [Fam3.1 aminoacylation ribozyme variant]	2.49	1.74	1.95	1.82	1.53	1.94
CUAGUACAAACAAUCGGUCUG [Fam1A.1 aminoacylation ribozyme variant]	0.781	0.837	0.725	0.775	0.802	0.572
AUUACGCUGGUGAUCGAGUGA [Fam2.1 aminoacylation ribozyme variant]	25.3	2.89	4.44	2.59	5.37	5.45
UCACACUUCGAGCAAUCGGUC [Fam1B.1 aminoacylation ribozyme variant]	1.23	0.91	0.953	1.05	0.931	1.12
AAGAUUGCUAAUAGUCGCUAG [Fam3.1 aminoacylation ribozyme variant]	0.773	1.23	0.811	1.04	0.963	0.937
AUUACCCUGGUCAUCGGCUGA [Fam2.1 aminoacylation ribozyme variant]	4.87	2.74	1.54	3.04	2.77	2.77
AUCCACCUAGUUCAUCGGGUG [Fam2.2 aminoacylation ribozyme variant]	24.1	2.9	3.53	3.24	4.83	4.63
AUAACGCUGGUCAUCGAGUGA [Fam2.1 aminoacylation ribozyme variant]	15	3.06	4.6	2.76	4.06	5.24
CCACACUUCGAGCCAUCGGUC [Fam1B.1 aminoacylation ribozyme variant]	1.27	1.84	1.27	1.87	1.58	1.02
CCUCACUUCAAGCAAUCGGUC [Fam1B.1 aminoacylation ribozyme variant]	55.7	1.07	1.07	1.21	1.58	22.4
AAGUUUGCCAGUAGUCGCAAG [Fam3.1 aminoacylation ribozyme variant]	0.763	1.04	0.793	0.932	1.02	1.21
AUUACCGUGGUCAUCGAGUGU [Fam2.1 aminoacylation ribozyme variant]	12.9	1.89	3.17	2.46	3.51	4.27
CCACACUAGAAGCAAUCGGUC [Fam1B.1 aminoacylation ribozyme variant]	0.713	0.809	0.747	0.961	0.954	0.873
AUUCUCCUAGGCCAUCGGGUG [Fam2.2 aminoacylation ribozyme variant]	33	3.49	5.37	3.74	7	5.32
CUACUUCAAGCAAUCGGUGUG [Fam1A.1 aminoacylation ribozyme variant]	3.56	1.26	1.59	1.24	1.83	3.13
AUUAAACUAGGUCAUCGGGUG [Fam2.2 aminoacylation ribozyme variant]	23	2.89	3.79	3.11	5.02	4.43
AUUACCCUGGGCCUCGAGUGA [Fam2.1 aminoacylation ribozyme variant]	22.6	2.41	3.15	2.61	3.74	4.65
CCACGUCAAACAAUCGGUCUG [Fam1A.1 aminoacylation ribozyme variant]	2.2	1.89	1.75	1.95	1.36	2.31
UUUCACCUAGGUCAUUGGGUG [Fam2.2 aminoacylation ribozyme variant]	17	2.59	2.51	2.66	2.57	3.77
CUACUUCACGCAAUCGGUCUG [Fam1A.1 aminoacylation ribozyme variant]	0.929	0.837	0.912	0.908	0.711	0.819
